{
  "source": "paper PMC2566891",
  "about": "(Nucleic Acids Research, 2008)",
  "system": "p53/DNA complex (p21 dsDNA)",
  "test": "Electrophoretic mobility shift assay",
  "type": "binding",
  "settings": "phosphorylated p53 8 µM, p21 DNA 4 µM, 14-3-3γ 0–20 µM; 0.8% agarose gel",
  "data": [
    {"molecule": "14-3-3: recombinant 14-3-3 protein (γ isoform in EMSA, Figure 5A) (protein) MDDREDLVYQAKLAEQAERYDEMVESMKKVAGMDVELTVEERNLLSVAYKNVIGARRASWRIISSIEQKEENKGGEDKLKMIREYRQMVETELKLICCDILDVLDKHLIPAANTGESKVFYYKMKGDYHRYLAEFATGNDRKEAAENSLVAYKAASDIAMTELPPTHPIRLGLALNFSVFYYEILNSPDRACRLAKAAFDDAIAELDTLSEESYKDSTLIMQLLRDNLTLWTSDMQGDGEEQNKEALQDVEDENQ", "values": [
      {"measurement": "p53/DNA complex formation", "value": "enhanced the p53/DNA complex formation"}
    ]}
  ]
}
